{"source": "paper PMC3497011", "key": {"[1]": {"target": "EGFR-GGS, chimeric receptor in which the JM domain is replaced by a (GGS)10 sequence", "assay": "flow cytometry on cells"}, "[2]": {"target": "EGFR-GGS tagged at the C-terminus with a fluorescent protein (EGFR-GGS-YFP and EGFR-GGS-mCherry, co-expressed)", "assay": "FRET or BRET"}, "[3]": {"target": "EGFR-GGS, chimeric receptor in which the JM domain is replaced by a (GGS)10 sequence", "assay": "cross-linking"}}, "data": [{"substance": "Alexa Fluor 488-labeled EGF (ligand)", "values": [{"measurement": "ratio of EGFR-GGS-bound ligand to EGFR-bound ligand", "setting": "[1]", "result": 1}]}, {"substance": "EGFR-GGS tagged at the C-terminus with a fluorescent protein (EGFR-GGS-YFP and EGFR-GGS-mCherry, co-expressed) (receptor)", "values": [{"measurement": "FRET efficiency", "setting": "[2]", "result": 0.25}]}, {"substance": "EGFR-GGS, chimeric receptor in which the JM domain is replaced by a (GGS)10 sequence", "values": [{"measurement": "cross-linked fraction (no ligand)", "setting": "[3]", "result": 0.42}, {"measurement": "cross-linked fraction (with EGF)", "setting": "[3]", "result": 0.64}, {"measurement": "stoichiometry N", "setting": "[3]", "result": 2}]}]}
